Source: the supplement of paper PMC7877785
± gives the uncertainty stated by the source.

Test: self-splicing fitness, log relative to wild type (ln ratio); higher = more splicing; Tetrahymena group I intron in knt gene, E. coli kanamycin selection, DiMSum; sequences stand for … in CUCUCU…GGAGGGAAAAGUUAUCAGGCAUGCACCUGGUAGCUAGUCUUUAAACCAAUAGAUUGCAUCGGUUUAAAAGGCAAGACCGUCAAAUUGCGGGAAAGGGGUCAACAGCCGUUCAGUACCAAGUCUCAGGGGAAACUUUGAGAUGGCCUUGCAAAGGGUAUGGUAAUAAGCUGACGGACAUGGUCCUAACCACGCAGCCAAGUCCUAAGUCAACAGAUCUUCUGUUGAUAUGGAUGCAGUUCACAGACUAAAUGUCGGUCGGGGAAGAUGUAUUCUUCUCAUAAGAUAUAGUCGGACCUCUCCUUAAUGGGAGCUAGCGGAUGAAGUGAUGCAACACUGGAGCCGCUGGGAACUAAUUUGUAUGCGAAAGUAUAUUGAUUAGUUUUGGAGUACUCGUGGUCG
Outline: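 DiMSum derived fitness as the error-weighted combination of fold changes across replicates, kanamycin versus no kanamycin, normalised to wild type. E. coli BL21(DE3) held the library, which randomised all eight P1ex-region intron nucleotides within the knt kanamycin-resistance gene on pET-22b(+). Six replicate transformations grew overnight at 37°C or 30°C on LB agar with or without 25 μg/mL kanamycin, also containing 100 μg/mL carbenicillin, 50 μM IPTG and 0.2% rhamnose, and pooled colonies were amplicon-sequenced on an Illumina HiSeq 2500.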

CGCCAGCAAUAUUACGCGGC
self-splicing fitness (ln) (30 °C): -4.11 ± 0.47 | self-splicing fitness (ln) (37 °C): -3.03 ± 0.27

CGCCAGCAAUAUUACGCUGU
self-splicing fitness (ln) (30 °C): -3.38 ± 0.29 | self-splicing fitness (ln) (37 °C): -2.69 ± 0.39

CGCCAGCAAUAUUACGCUUG
self-splicing fitness (ln) (30 °C): -2.95 ± 0.13 | self-splicing fitness (ln) (37 °C): -1.88 ± 0.15

CGCCAGCAAUAUUACGGAGC
self-splicing fitness (ln) (30 °C): -3.06 ± 0.24 | self-splicing fitness (ln) (37 °C): -2.82 ± 0.48

CGCCAGCAAUAUUACGGCAU
self-splicing fitness (ln) (30 °C): -1.25 ± 0.081 | self-splicing fitness (ln) (37 °C): -0.458 ± 0.088

CGCCAGCAAUAUUACGGCCU
self-splicing fitness (ln) (30 °C): -0.959 ± 0.061 | self-splicing fitness (ln) (37 °C): 0.409 ± 0.072

CGCCAGCAAUAUUACGGCGC
self-splicing fitness (ln) (30 °C): -3 ± 0.17 | self-splicing fitness (ln) (37 °C): -2.23 ± 0.22

CGCCAGCAAUAUUACGGCUC
self-splicing fitness (ln) (30 °C): -0.72 ± 0.22 | self-splicing fitness (ln) (37 °C): -0.0823 ± 0.23

CGCCAGCAAUAUUACGGUCU
self-splicing fitness (ln) (30 °C): -0.989 ± 0.061 | self-splicing fitness (ln) (37 °C): -0.324 ± 0.076

CGCCAGCAAUAUUACGUACC
self-splicing fitness (ln) (30 °C): -3.78 ± 0.29 | self-splicing fitness (ln) (37 °C): -2.74 ± 0.3

CGCCAGCAAUAUUACGUCAG
self-splicing fitness (ln) (30 °C): -0.444 ± 0.073 | self-splicing fitness (ln) (37 °C): 0.203 ± 0.095

CGCCAGCAAUAUUACGUCUA
self-splicing fitness (ln) (37 °C): -2.52 ± 0.3

CGCCAGCAAUAUUACGUGGA
self-splicing fitness (ln) (30 °C): -3.6 ± 0.2 | self-splicing fitness (ln) (37 °C): -2 ± 0.15

CGCCAGCAAUAUUACGUGGC
self-splicing fitness (ln) (30 °C): -3.72 ± 0.2 | self-splicing fitness (ln) (37 °C): -2.5 ± 0.2

CGCGAGCAAUAUUACGAAAU
self-splicing fitness (ln) (37 °C): -2.57 ± 0.27

CGCGAGCAAUAUUACGAAGU
self-splicing fitness (ln) (30 °C): -3.36 ± 0.21 | self-splicing fitness (ln) (37 °C): -2.57 ± 0.31

CGCGAGCAAUAUUACGACGU
self-splicing fitness (ln) (30 °C): -2.39 ± 0.33 | self-splicing fitness (ln) (37 °C): -1.08 ± 0.21

CGCGAGCAAUAUUACGAGGG
self-splicing fitness (ln) (30 °C): -3.3 ± 0.22 | self-splicing fitness (ln) (37 °C): -2.71 ± 0.22

CGCGAGCAAUAUUACGAUCG
self-splicing fitness (ln) (30 °C): -2.08 ± 0.11 | self-splicing fitness (ln) (37 °C): -2.66 ± 0.29

CGCGAGCAAUAUUACGCACG
self-splicing fitness (ln) (37 °C): -2.14 ± 0.46

CGCGAGCAAUAUUACGCUAC
self-splicing fitness (ln) (37 °C): -2.08 ± 0.25

CGCGAGCAAUAUUACGGCCA
self-splicing fitness (ln) (37 °C): -1.68 ± 0.39

CGCGAGCAAUAUUACGGGCC
self-splicing fitness (ln) (30 °C): -2.71 ± 0.27

CGCGAGCAAUAUUACGGGCG
self-splicing fitness (ln) (30 °C): -3.25 ± 0.24 | self-splicing fitness (ln) (37 °C): -3.4 ± 0.42

CGCGAGCAAUAUUACGGGUG
self-splicing fitness (ln) (30 °C): -2.14 ± 0.077 | self-splicing fitness (ln) (37 °C): -1.68 ± 0.1

CGCGAGCAAUAUUACGUAGU
self-splicing fitness (ln) (30 °C): -3.92 ± 0.18 | self-splicing fitness (ln) (37 °C): -2.14 ± 0.16

CGCGAGCAAUAUUACGUCGC
self-splicing fitness (ln) (30 °C): -2.79 ± 0.24 | self-splicing fitness (ln) (37 °C): -3.48 ± 0.37

CGCGAGCAAUAUUACGUCGG
self-splicing fitness (ln) (30 °C): -1.99 ± 0.086 | self-splicing fitness (ln) (37 °C): -1.16 ± 0.093

CGCGAGCAAUAUUACGUUAC
self-splicing fitness (ln) (30 °C): -4.07 ± 0.28 | self-splicing fitness (ln) (37 °C): -1.78 ± 0.33

CGCGAGCAAUAUUACGUUAU
self-splicing fitness (ln) (30 °C): -3.91 ± 0.21 | self-splicing fitness (ln) (37 °C): -3.49 ± 0.3

CGCUAGCAAUAUUACGACCG
self-splicing fitness (ln) (30 °C): -1.12 ± 0.11 | self-splicing fitness (ln) (37 °C): -0.347 ± 0.15

CGCUAGCAAUAUUACGAGGG
self-splicing fitness (ln) (30 °C): -2.59 ± 0.11 | self-splicing fitness (ln) (37 °C): -2.44 ± 0.17

CGCUAGCAAUAUUACGAUGG
self-splicing fitness (ln) (30 °C): -0.85 ± 0.075 | self-splicing fitness (ln) (37 °C): 0.251 ± 0.083

CGCUAGCAAUAUUACGCAGU
self-splicing fitness (ln) (30 °C): -3.63 ± 0.2 | self-splicing fitness (ln) (37 °C): -2.35 ± 0.2

CGCUAGCAAUAUUACGCAUC
self-splicing fitness (ln) (30 °C): -3.88 ± 0.36 | self-splicing fitness (ln) (37 °C): -2.66 ± 0.29

CGCUAGCAAUAUUACGCCUA
self-splicing fitness (ln) (30 °C): -2.65 ± 0.25 | self-splicing fitness (ln) (37 °C): -3.05 ± 0.28

CGCUAGCAAUAUUACGCGGA
self-splicing fitness (ln) (30 °C): -3.21 ± 0.17 | self-splicing fitness (ln) (37 °C): -1.73 ± 0.099

CGCUAGCAAUAUUACGCUAA
self-splicing fitness (ln) (30 °C): -1.93 ± 0.22 | self-splicing fitness (ln) (37 °C): -1.53 ± 0.25

CGCUAGCAAUAUUACGCUAU
self-splicing fitness (ln) (37 °C): -2.46 ± 0.27

CGCUAGCAAUAUUACGCUUU
self-splicing fitness (ln) (30 °C): -3.13 ± 0.18 | self-splicing fitness (ln) (37 °C): -2.32 ± 0.2

CGCUAGCAAUAUUACGGAAG
self-splicing fitness (ln) (30 °C): -1.7 ± 0.16 | self-splicing fitness (ln) (37 °C): 0.348 ± 0.17

CGCUAGCAAUAUUACGGAGA
self-splicing fitness (ln) (37 °C): -2.2 ± 0.36

CGCUAGCAAUAUUACGGAGG
self-splicing fitness (ln) (30 °C): -1.78 ± 0.099 | self-splicing fitness (ln) (37 °C): -0.655 ± 0.13

CGCUAGCAAUAUUACGGCAU
self-splicing fitness (ln) (30 °C): -1.89 ± 0.093 | self-splicing fitness (ln) (37 °C): -0.622 ± 0.083

CGCUAGCAAUAUUACGGCCA
self-splicing fitness (ln) (30 °C): -0.309 ± 0.16 | self-splicing fitness (ln) (37 °C): -0.364 ± 0.2

CGCUAGCAAUAUUACGGUCC
self-splicing fitness (ln) (30 °C): -1.48 ± 0.12 | self-splicing fitness (ln) (37 °C): -0.153 ± 0.15

CGCUAGCAAUAUUACGGUUG
self-splicing fitness (ln) (30 °C): -2.07 ± 0.055 | self-splicing fitness (ln) (37 °C): -0.803 ± 0.072

CGCUAGCAAUAUUACGGUUU
self-splicing fitness (ln) (30 °C): -1.69 ± 0.053 | self-splicing fitness (ln) (37 °C): -0.856 ± 0.074

CGCUAGCAAUAUUACGUCGC
self-splicing fitness (ln) (30 °C): -2.3 ± 0.33

CGCUAGCAAUAUUACGUCUU
self-splicing fitness (ln) (37 °C): -0.855 ± 0.16

CGCUAGCAAUAUUACGUGUC
self-splicing fitness (ln) (30 °C): -2.34 ± 0.13 | self-splicing fitness (ln) (37 °C): -2.78 ± 0.17

CGCUAGCAAUAUUACGUUCA
self-splicing fitness (ln) (30 °C): -1.39 ± 0.12 | self-splicing fitness (ln) (37 °C): -1.68 ± 0.14
